According to patent publication US20160304566A1:

What was measured:
human IgG-HRP (human) [1] = assay: ELISA, coated protein, human IgG-HRP, n=12
human IgG-HRP (human) [2] = assay: ELISA, SpA coated, human IgG-HRP, PBS in place of F(ab)2, n=5

| Substance | OD450 nm, Mean value (human IgG-HRP (human) [1]) [OD] | OD450 nm, Ave (human IgG-HRP (human) [2]) [OD] |
| --- | --- | --- |
| SpA5 (RRVV) (from UniProt P38507 37-327) | 0.062 |  |
| SpA5wt (from UniProt P38507 37-327) | 0.625 |  |
| SpA (252) (from UniProt P38507 37-508) | 0.635 | 0.641 |
